Experimental findings from the DeepSol protein solubility set are described below.

This data set can be described thus: soluble on expression in E. coli; label from the status in PepcDB or PDB records.
For “MIQITVVQIDNYGPWTVTPNPRRESDLQALQSRLYCDMNLQFGAHKGLAFYTRFDNIIAITNGIDLETHKRIQNSVKNRYPFTVSMAVASAETAYEAQKLATKTIQEYGSAQDDVRKEVLDVANEFVSNGYVQLAHVDINDITGKLTDLETAYDTYLSVQKTKLKLMEELKKYDSLGFFIGGDNFMCPCNGMNEKDFLCMFEDIKDSCGIELKAGIGIGKTAEDASNLADIGLEVIREGKTDSQVYTLKQ”, the “soluble on expression in E. coli” value was “not soluble”.
“MIQKQHESKLEVGQTFPVTIKRLGINGEGVGYFKRQVVFIPGALPGEEVVAETTKIQRGFAEAKVKKVRKASPHRVKAPCPVYEECGGCQLQHLDYKEQLNQKRDIVVQAFEKYMKNSMEEKIRPTLGMENPWHYRNKSQLQVGRKDEKVITGLYKQNSHQLIDIAHCMIQHKATNEATKVVRRILEKLNVSIYNEKKQKGLVRTIVTRTAVQTGEVQVTLITTKEELPNKEQFIAEVQKQMPAVKSIMQNVNWRKTSVIFGDKTFKLAGKEVIQETLGDLSFELSARAFFQLNPEQTVVLYNEAKKAAALTGNEKIVDAYCGVGTIGLWLANDAAEVRGMDVIPEAIADARKNAKRHGFTNTKYEAGKAEQWLPKWVKEGWRPDVIVVDPPRTGCDDKLLETILKVKPKQVVYVSCNPSSLARDVQALMKSYEVEYVQPVDMFPHTAHVENVVKLTLK”: the “soluble on expression in E. coli” value was “not soluble”.
Turning to “MIRFEQVSKAYLGGRQALQGVDFHLRPAEMAFLTGHSGAGKSTLLKLICGIERPSAGHIWFGGHDISRLKNREVPFLRRQIGMIFQDHHLLLDRTVYDNVAMPLIIAGASSEDIRRRVSAALDKVGLLDKAKNFPIQLSGGEQQRVGIARAVVNKPAVLLADEPTGNLDDALSEGILRLFEEFNRVGVTVLMATHDTSLIARRRYPILTLSQGRMSGAHHGE”, the “soluble on expression in E. coli” value is “not soluble”.
The value for “MIRIDSVTKRYPDGTVAVDRLSLEIPDRSITVLVGPSGCGKTTTLRMINRMVEPSEGTILLDGADITKQPVNTLRRSMGYVIQNAGLFQHRTIVDNIATVPRMLGWGKERARSRARELMERVGLDASLARRYPYQLSGGQQQRVGVARALASDPPVLLMDEPFSAVDPVVRKGLQEELLRIQDELGKTIVFVTHDIDEAIRLGTMVAVMRTGGHLAQFAPPAELLSAPADAFVEDFLGTDRGIRRLSFFPSAGLELLTTPVVAIDSTAEQIAARGTPDVPYLLVTDVDGKALGWSEPKDLTAGKVVPERLLPYGRPFESGKDSLRAALDCAVLSPTGWAVAVDGTGRVVGVVSQETIGEAIRGAHAERRKADLAGLEHHHHHH” was “not soluble”; that for “MIRIELPTLIAKLNAQSKLALEQAASLCIERQHPEVTLEYYLDVLLDNPLSDVRLVLKQAGLEVDQVKQAIASTYSREQVLDTYPAFSPLLVELLQEAWLLSSTELEQAELRSGAIFLAALTRADRYLSFKLISLFEGINRENLKKHFAMILSDSAETAVAKTDKNAANPLQAAAETPLGRFCTNVTEQARNGELDPVLSRENELNLMVDILCRRRKNNPIVVGEAGVGKSAMIEGLALRVVAGKVPTQLQNVELYSLDLGRLQAGASVKGEFEKRLKGVIDAIKQSPKPIILFIDEAHTLIGSGNQEGGSDAANLLKPALARGELSTVAATTWKEYKKYFEKDPALTRRFQLVKLDEPTIDQAVDILRGLNSVYEKAHNVLITDDALKAAAELSARYISGRQLPDKAIDVLDTACARIAINMTTPPKRLALLETLCHQRQLEIDMLERAQFLGQEVDSERLDVLRNQELADEAEKAALTQSWQQQKSLVESIIALRAELMELSQAQEQDPDHLLVVRTALQEQYQALDAIDHAERLMHPQVDADQIAEVIADWTGVPVDQMNTDELHKITHLTSILGQAIKGQETAIERIHRHLLTARADLRRPGRPKGAFLLVGPSGVGKTETVVQLAEQLYGGKQFLTTINMSEYQEKHTVSRLIGSPPGYVGYGEGGVLTEAIRKMPYSVVLLDEVEKAHPEVLNIFYQGFDKGEIADGEGRVIDCQNIVFFLTSNLGYQTIVDYADEPAKLDEALYPELAAFFKPALLARMEVIPYLPLGKEVLAQIVRGKLARLEKLFKTRYNAEVVIEESLIDEILSRATRSENGARMLEAIIEGQLLPPVSLALLNKLAERAPVERIRLAAEAGEFIGEVA” was “not soluble”; that for “MIRKCTDHGYFRGGSCQQCKRPGRYVLDDGREEKLGRFVSGTLRHFPASAGVKMDKYGWIDLNAFCEVMKKRYNWMRKEYLYALVESDEKGRYQISGPMIRARYGHSVNVDLDYDESDTPYVYYGASPEEVDVLLENGIFPIKQRYVHLSTTYEKAAEVALIHTESPVILQVDAFRAQEDGISLKLATDYIVLAEKIPPDYLFVLEDLEHHHHHH” was “soluble”.
Turning to “MIRLAHADDLLILQEIERAAGQAFRALGMDSIADDEPLSIDELNSYATAGRAWVSVDGLDYPVAYLLADIVDGAGHVEQVSVHPDQAHQGLGRELLHAARVWTRGHGMQRQTLSTFRDVPWNAPYYRRLGFDVLDAGSWGPQLAHLMEHEAELGLTRWPRVAMWRPAVPPK”, the “soluble on expression in E. coli” value is reported as “soluble”.
The value for “MIRTDNLSDLASARDYWRTDKYISFVITFQFYLLLDTMSDSFNWPAGNNEARERLGEKFESLHLDSRISTSHAKPLSNADPVVVPIYHSSTYRFKTVDQFNEDNHGANFVYRRCGNPTTENVEVVINEIEGGAGSLLYNSGLAAISAVFLEFLSSGAHMIVMNPIYSGTSSFINETLARFGVEITSVDVEKEKDFAGAVEKAIRPNTKMIYFESIANPTMAVPDILGTIEVAKKYKILTCLDATFSSPYNIQPLKLGADISLHSCSKYIGGHTDVIAGVVTVSSYDNWKKLKLQQLTTGSSLSPYDAALLTRGLKTLGLRVDRISENAQKTAEFLESHPKVERVFYPGLPSHPQHQYAKQVMKQFAGMIAFDVGTAENAIKLVESLKLIIHAVSLGGTESLIEHPLSMSHGKHLLRYLDGPTVAPGLLRFSVGIENVEDIIGDLNDALEKL” was “not soluble”.
The value for “MISANRPIINLDLDLLRTFVAVADLNTFAAAAAAVCRTQSAVSQQMQRLEQLVGKELFARHGRNKLLTEHGIQLLGYARKILRFNDEACSSLMFSNLQGVLTIGASDESADTILPFLLNRVSSVYPKLALDVRVKRNAYMAEMLESQEVDLMVTTHRPSAFKALNLRTSPTHWYCAAEYVLQKGEPIPLVLLDDPSPFRDMVLATLNKVDIPWRLAYVASTLPAVRAAVKAGLGVTARPVEMMSPDLRVLSGVDGLPPLPDTEYLLCYDPSSNNELAQVIYQAMESYHNPWQYSPMSAPEGDDSLLIERDIE” was “not soluble”; that for “MISITSAEVGMKINEWHRHIQKFNVTDAEMLKAEIERDIEVMEEDQDLLIYYQLMAFRHKIMLEYTLPSDENRMELSEYLNKIEGHKKKLDNMRAYYYNFFRGMYEFRNGEYTRAITYYKKAERKIPTISDKIEKAEFYFKLSEVYYHMKMTHISMHYAELSYNIYKKHELYSVRRIQCHFVIAGNYDDLENHEKALPHLQEALKGAELLKSKNTHIYATAFFNLGNCYHKMDNLNKAARYIEQALVQYRKINSDVLPQAYHDLALIYFKQGKKGQAMDCFRKGIRSAVDFKDELFMNLFEALDVLYIRNGDTPKLLNIFSRLENGKGYPYLEELALLGGNLFDYNGKIEDSIICFKK” was “not soluble”; that for “MISLEDASLTKKGIVKLSSATDSDSEALAATPKAVKTVMGEVRTKAPLDSPAFTGTPTTPTPPGDAKGLQTTNAEFVRKLIAALVGSVLEPLDTLQELADALGNDPNFATTVLNKLAGKQPLDETLTALSGKSVDGLIEYVGLRETISRAADALQKSQNGGDIPDKDLFVRRIGAARAFDGAVIIGCDDNPWTTAEFIVWLESQGAFNHPYWMCRGSWSYAYNKIITDTGCGNICLAGAVIEVMGVRGAMTIRVTTSHSVSGW” was “not soluble”.
In the case of “MISLPIDLVLPDLREALVNRNEVILEAPPGAGKTTRVPLALLNESWLGDQKILMLEPRRLAARAAAERLASELGEKVGEIVGYRIRLESKVGPRTKIEVVTEGILARRLQDDPALDGVGVVIFDEYHLRNLHSDLALALCLSGRDLLRDDPPLKLLLMSAT”, the “soluble on expression in E. coli” value was “not soluble”.
Regarding “MISRHFTVLTALNLQTKIKICIRNFSIRGAMTKVNGNSNGNGISASTDLLDTPSAYTQKSNKTHTSIDLRSDTVTVPSVEMRRAMAEAIVGDDVYGEDTTTNRLEQRCAELFGKEAGLFVTSGTMGNLLAIMAHCQRGEEIIVGRYNHIHRWEQGNYAQFAGISATTLEVKPDGTMDLNDIEQAIRVKGGYVQIKDESCDDLEVTSIPDCHMPASKLICIENTHNYTGGKALPIEWMRSVKQLAERRDLKVHMDGARIYNAAVASNCSVSKIASFADTVQMCFSKGLGAPVGSIVVGPKDFIDRARHSRKALGGGWRQSGILAAAAHIALDHADATIRADHERAKTLARMINDATPEEFRTKVFAAEKDITNMVLVHCQNGVTVQQLTDFFQKHDILAMTFDARRIRMVLNWNVSDENLETIVEVYKKFLKQL”, the “soluble on expression in E. coli” value was “not soluble”.
In the case of “MISVNDFRTGLTIAVDNGLWQVLDFQHVKPGKGAAFVRSKLRNLRTGSVQEKTFRAGEKVEKAHIENRRMQYLYASGEAHVFMDNGTYEQIELGEKQIERELKFLKENMEVSIMTYQGEVLGVELPNTVELQVTETEPGIKGDTASNVTKPATLETGLVVQVPIFINEGEMLIINTGEGKYVSRA”, the “soluble on expression in E. coli” value is given as “soluble”.
On to “MISVNKVFYAHSERFQMQNMNVHIKAGEVVSLIGPNGSGKSTLLRLMARLLKQSEGDIVLDGKSIHTMKSADVAKQLAMLPQMHDHQLDLTVKELIEFGRGPHKSWRGRLNKEDEEIVDWALSVTNLEGYEYRLLQSLSGGERQRAWIAMTLAQRTNVLLLDEPTTFLDIVHQLEVMELVKRLNEEFGMTIIMVLHDINQAAQYSDRLLVLKRGKLQYDGVPEEVLCHEMFQHIFGIEVDIFQGSEKPFFTPKRISKKGGAKCEQKNVLPLS”, for which the “soluble on expression in E. coli” value was “not soluble”.
For “MITCGQVSSSLAPCIPYVRGGGAVPPACCNGIRNVNNLARTTPDRQAACNCLKQLSASVPGVNPNNAAALPGKCGVSIPYKISASTNCATVK”, the “soluble on expression in E. coli” value is recorded as “soluble”.
The value for “MITELTNIHLIKGNLQANSKNEVFAELAQMLLENNRISNKEDFLNDIEIRERLSVTSMDGIAYPHSKSKAVTKPAIAVGVKHEGIEYGDEEGIKPTVFFMIASPDNGADHHIYVLQELFGKFSEEFIEDIHNAKNEHQILNISIQS” was “not soluble”; that for “MITFTANIDGSQANAGTGTGSLGMGVANILFDDLSNEFSWDISWSGLTGNVTAAHFHGPALLNQNAGVQVAISTLSNPTSGSDTINTAQAADLLAGLWYINIHTDTSPSGEIRGQVQVASVPEPGTLSLLLLSMIGVFYSRSKILLEHHHHHH” was “not soluble”.
As to “MITLYGFGKCFNVMDASPFVVKVDLFMRMANIPCQVKYGAKYLKKSPKGKLPFINDNGTVVADSDAIITYLTKQYQVTLDAELTPEQKAQAHLITKSLDEGLYWCLVYSRWATDECWPLTNEAFFATLPIPLRWFLPNIIRKSVKKNLHGQGVGRHSLEEILAISDKSLASLSTLLADKNFFFGDTHTSFDAVVYSHLCEFISVRFDNGFESKFTKNAKRYQNLVQFCQRIEDKFYPEKLEHHHHHH”, the “soluble on expression in E. coli” value is given as “soluble”.
Regarding “MIVALGADLVEIARVERLLSRHGERALRRLFHEEEVAYALARQNPFPSLAARLAAKEAFQKCWPESLSWKEVWVGMEGKRPALRFAPRIEARMAEEGLFAHLSLSHERSHALAVVVLEARARGGG”, the “soluble on expression in E. coli” value is recorded as “soluble”.
Take “MIVFYDSWCPMCTAVAEHTKKLDKKGKMKFVSFRNEDVVEKYELSQELQSKMEQRLYIFKNNKWYDGIQSIDVLAKAVPSYWFAVPFIKLSIVLGFGSKVYDYIANNRKLVPVGHCRGGVCEIPTKK”: the “soluble on expression in E. coli” value is “not soluble”.
As to “MIVGIGIDIIELNRIEKMLDGKLKFMERILTENERNVAKGLKGSRLTEFVAGRFAAKEAYSKAVGTGIGKEVSFLDIEVRNDDRGKPILITSTEHIVHLSISHSKEFAVAQVVLESSSS”, the “soluble on expression in E. coli” value is on record as “not soluble”.
